The target of assay [1] is T1, human FcRIIIA-V158 protein (MednaBio, E1035) (human, UniProt P08637 17-208).
T1 construct: Bought; also called FcγRIIIA(V); FcgRIIIA(V)
The assay can be described thus: BLI. A digest of the protocol:
(§1)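 Binding was measured by biolayer interferometry on an Octet Red96 System, with commercial human Fc receptor proteins loaded at 20 μg/mL onto anti-penta-HIS biosensors. Sensors were dipped into an 8-point 1:3 dilution series of test IgG starting at 300 nM in PBS with 0.1% BSA and 0.02% Tween-20. Fcγ receptor assays ran at pH 7.2 and FcRn assays at pH 6. Kd, kon and koff came from global fitting to a 1:1 binding model.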

The target of assay [2] is T2, human FcRIIA protein (MednaBio, E1033) (human, UniProt P12318 34-218, limits assumed).
T2 construct: Bought; also called FcγRIIA
T2 sequence (looked up): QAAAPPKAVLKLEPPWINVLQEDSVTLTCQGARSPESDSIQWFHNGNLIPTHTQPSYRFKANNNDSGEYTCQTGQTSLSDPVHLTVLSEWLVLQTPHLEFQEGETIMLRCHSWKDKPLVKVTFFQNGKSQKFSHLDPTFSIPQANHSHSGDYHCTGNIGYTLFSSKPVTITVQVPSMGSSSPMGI
The assay is described as follows: BLI. A digest of the protocol: as §1
(In general: Biolayer interferometry detects binding as a change in optical thickness at a sensor tip.)

Assay [3] has as its target T3, human FcRIIB/C protein (MednaBio, E1034) (human, UniProt P31994 43-217, limits assumed).
T3 construct: Bought as FcRIIB/C; also called FcγRIIB; CD32B
T3 sequence (looked up): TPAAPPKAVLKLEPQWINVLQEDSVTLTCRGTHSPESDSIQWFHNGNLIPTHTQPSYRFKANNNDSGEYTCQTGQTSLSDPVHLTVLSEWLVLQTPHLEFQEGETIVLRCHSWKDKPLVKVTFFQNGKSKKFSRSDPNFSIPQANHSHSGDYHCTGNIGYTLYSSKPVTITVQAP
The assay can be described thus: BLI. An outline of the steps: as §1

Assay [4] deals with T4, human FcRIIIA-F158 protein (MednaBio, E1036) (human, UniProt P08637 17-208).
T4 construct: Bought; also called FcγRIIIA(F)
The assay is described as follows: BLI. An outline of the steps:
as §1

For assay [5], the target named is T5, human FcRn protein (MednaBio, E1032) (human, UniProt P55899 24-297; P61769 21-119).
T5 construct: Bought; assays at pH 6
The assay is described as follows: BLI. A digest of the protocol: as §1

Assay [6] concerns the target T6, human FcRIIIB protein (MednaBio, E1037) (human, UniProt O75015 17-200).
T6 construct: Bought; also called FcγRIIIB; FcgRIIIB
The assay can be described thus: BLI. An outline of the steps:
as §1

Assay [7] addresses T7, human FcRI protein (MednaBio, E1031) (human, UniProt P12314 16-288, limits assumed).
T7 construct: Bought; loaded on anti-penta-HIS biosensors; also called FcγRI
The assay is described as follows: BLI. An outline of the steps: as §1

Assay [8] deals with T8, human FcγRIIC expressed on CHO cells (human, UniProt P31995 43-323).
T8 construct: whole, on cells
T8 sequence (looked up): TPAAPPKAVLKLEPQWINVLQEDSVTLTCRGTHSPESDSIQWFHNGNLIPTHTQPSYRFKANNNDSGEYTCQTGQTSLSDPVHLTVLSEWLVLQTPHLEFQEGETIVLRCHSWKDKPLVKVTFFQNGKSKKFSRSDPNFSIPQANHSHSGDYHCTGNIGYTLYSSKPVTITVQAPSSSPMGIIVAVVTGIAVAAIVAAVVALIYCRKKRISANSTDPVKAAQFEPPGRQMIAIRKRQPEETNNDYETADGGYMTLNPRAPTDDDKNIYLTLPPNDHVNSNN
The assay is described as follows: FACS, CHO cells expressing FcγRIIC. Background: A flow cytometer gives signals particle by particle.

Assay [9] addresses T1, human FcRIIIA-V158 protein (MednaBio, …). The assay can be described thus: BLI. Here is the method:
(§2) These IgG mutants were tested for binding to a panel of human Fc receptors (FcRs), including FcRn, using the Octet Red96 System (ForteBio, Model #Red96). Human FcR proteins were purchased commercially (FcRn, MednaBio, E1032; FcRI, MednaBio, E1031; FcRIIA, MednaBio, E1033; FcRIIB/C, MednaBio, E1034; FcRIIIA-F158, MednaBio, E1036; FcRIIIA-V158, MednaBio, E1035; FcRIIIB, MednaBio, E1037). All Fey receptor assays were performed at pH 7.2; all FcRn assays were performed at pH 6. The Fey receptors were loaded onto anti-penta-HIS1K (ForteBio, Cat #18-5122) biosensors at a concentration of 20 μg/mL. The loaded biosensors was then be dipped into an 8-point 1:3 dilution series of the test IgG molecules (including controls and the mutants described herein) in PBS with 0.1% BSA, 0.02% Tween-20 (pH 7.2) at a starting concentration of 300 nM. Kinetic analysis was performed using a 1:1 binding model and global fitting.
The source holds these as a separate data set.

Assay [10] addresses T2, human FcRIIA protein (MednaBio, E1033). The assay can be described thus: BLI. Here is the method: as §2
This is another data set of the same source.

The target in assay [11] is T3, human FcRIIB/C protein (MednaBio, E1034). The assay can be described thus: BLI. Here is the method: as §2
This is another data set of the same source.

Assay [12] concerns the target T4, human FcRIIIA-F158 protein (MednaBio, …). The assay is described as follows: BLI. Here is the method: as §2
This is another data set of the same source.

In assay [13] the target is T5, human FcRn protein (MednaBio, E1032). The assay can be described thus: BLI. Here is the method: as §2
This is another data set of the same source.

The target of assay [14] is T6, human FcRIIIB protein (MednaBio, E1037). The assay is described as follows: BLI. Here is the method:
as §2
The source holds these as a separate data set.

The target of assay [15] is T7, human FcRI protein (MednaBio, E1031). The assay can be described thus: BLI. Here is the method:
as §2
This is another data set of the same source.

Assay [16] has as its target T9, human FcγRI expressed on CHO cells (human, UniProt P12314 16-374).
T9 construct: whole, on cells
The assay is described as follows: FACS, CHO cells expressing FcγRI. Here is the method:
For FACS analysis of the IgG mutants' binding to different FcγRs, FcγR overexpressing CHO cells were harvested using trypsin-EDTA and were suspended in cold staining buffer (3% BSA in PBS). Test IgG mutants, which were diluted in staining buffer, were added into the cells. The mixture was incubated 4° C. for 2 hours, and then washed twice with cold staining buffer and re-suspended in PE-labeled anti-human IgG followed by incubation at 4° C. for 2 hours. The mixture was washed twice with staining buffer and re-suspended in 2% PFA in PBS for FACS.

The values that follow come from patent US20200392227A1 (LYVGEN BIOPHARMA, published 2020).

Read-outs that look alike come from different tables or passages of the source.

T1 sequence (P08637 17-208 F176V): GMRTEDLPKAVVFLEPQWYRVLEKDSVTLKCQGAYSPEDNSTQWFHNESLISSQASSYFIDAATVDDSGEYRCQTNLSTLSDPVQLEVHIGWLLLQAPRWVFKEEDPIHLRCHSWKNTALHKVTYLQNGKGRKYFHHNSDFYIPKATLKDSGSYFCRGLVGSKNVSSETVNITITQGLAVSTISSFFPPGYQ
T4 sequence (P08637 17-208 limits assumed): as the sequence (P08637 17-208 F176V) above, with V160F counted along it
T7 sequence (P12314 16-288 limits assumed): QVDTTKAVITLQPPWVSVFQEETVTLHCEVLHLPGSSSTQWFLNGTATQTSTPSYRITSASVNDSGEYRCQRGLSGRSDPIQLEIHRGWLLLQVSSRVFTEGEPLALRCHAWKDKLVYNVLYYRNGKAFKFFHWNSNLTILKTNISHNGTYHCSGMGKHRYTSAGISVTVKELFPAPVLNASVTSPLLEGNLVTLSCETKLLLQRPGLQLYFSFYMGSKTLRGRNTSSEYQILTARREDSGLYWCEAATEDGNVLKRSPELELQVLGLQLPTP
T6 sequence (O75015 17-200 limits assumed): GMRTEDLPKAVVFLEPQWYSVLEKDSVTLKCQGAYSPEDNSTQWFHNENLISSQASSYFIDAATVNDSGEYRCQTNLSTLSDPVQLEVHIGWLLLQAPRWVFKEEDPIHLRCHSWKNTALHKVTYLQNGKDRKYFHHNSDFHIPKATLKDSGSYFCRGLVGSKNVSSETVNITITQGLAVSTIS
T5 sequence (P55899 24-297 limits assumed, form in doubt, chain 1 of 2): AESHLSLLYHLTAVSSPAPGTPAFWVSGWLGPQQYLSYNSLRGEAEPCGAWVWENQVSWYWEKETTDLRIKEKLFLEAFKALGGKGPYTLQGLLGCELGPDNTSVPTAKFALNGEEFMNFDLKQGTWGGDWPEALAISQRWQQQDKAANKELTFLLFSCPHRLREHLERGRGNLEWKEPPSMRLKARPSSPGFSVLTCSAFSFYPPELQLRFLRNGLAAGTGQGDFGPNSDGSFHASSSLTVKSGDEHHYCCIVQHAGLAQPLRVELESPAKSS
T5 sequence (P61769 21-119 limits assumed, form in doubt, chain 2 of 2): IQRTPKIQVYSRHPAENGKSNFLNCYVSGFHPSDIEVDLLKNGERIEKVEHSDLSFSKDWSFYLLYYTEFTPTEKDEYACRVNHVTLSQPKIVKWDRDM
T9 sequence (P12314 16-374): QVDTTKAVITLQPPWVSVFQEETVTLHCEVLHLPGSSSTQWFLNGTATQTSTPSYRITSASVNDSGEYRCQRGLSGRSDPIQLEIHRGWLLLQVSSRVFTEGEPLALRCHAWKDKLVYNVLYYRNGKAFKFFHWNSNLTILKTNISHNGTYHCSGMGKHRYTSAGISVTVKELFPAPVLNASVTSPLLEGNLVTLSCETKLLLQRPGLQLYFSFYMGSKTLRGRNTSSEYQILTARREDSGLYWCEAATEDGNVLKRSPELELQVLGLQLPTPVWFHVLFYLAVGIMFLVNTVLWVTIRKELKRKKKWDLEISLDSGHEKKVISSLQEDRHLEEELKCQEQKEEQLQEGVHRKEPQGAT

B1: anti-CD137 IgG2 with Fc variant G2m9 (antibody)
heavy: EVQLVQSGAEVKKPGESLRISCKGSGYSFSTYWISWVRQMPGKGLEWMGKIYPGDSYTNYSPSFQGQVTISADKSISTAYLQWSSLKASDTAMYYCARGYGIFDYWGQGTLVTVSSASTKGPSVFPLAPCSRSTSESTAALGCLVKDYFPEPVTVSWNSGALTSGVHTFPAVLQSSGLYSLSSVVTVPSSNFGTQTYTCNVDHKPSNTKVDKTVERKCCVECPPCPAPPVAGPSVFLFPPKPKDTLMISRTPEVTCVVVDVEHEDPEVQFNWYVDGVEVHNAKTKPREEQFNSTFRVVSVLTVVHQDWLNGKEYKCKVSNKGFPAPIEKTISKTKGQPREPQVYTLPPSREEMTKNQVSLTCLVKGFYPSDIAVEWESNGQPENNYKTTPPMLDSDGSFFLYSKLTVDKSRWQQGNVFSCSVMHEALHNHYTQKSLSLSPGK
light: SYELTQPPSVSVSPGQTASITCSGDNIGDQYAHWYQQKPGQSPVLVIYQDKNRPSGIPERFSGSNSGNTATLTISGTQAMDEADYYCATYTGFGSLAVFGGGTKLTVLGQPKAAPSVTLFPPSSEELQANKATLVCLISDFYPGAVTVAWKADSSPVKAGVETTTPSKQSNNKYAASSYLSLTPEQWKSHRSYSCQVTHEGSTVEKTVAPTECS
notes: copies: 2 + 2
For the molecule B1, the binding result in assay [1] is given as “no binding (tested: 300 nM)”; in assay [4], “no binding (tested: 300 nM)”; in assay [6], “no binding (tested: 300 nM)”; in assay [7] it was “no binding (tested: 300 nM)”; in assay [8], “binds”. In addition, the results for the Kd in [2], in [3] and in assay [5] were 280 nM, 52 nM and 22 nM, respectively. Also, the dissociation rate constant (koff) – broadly, the rate constant with which the complex falls apart – amounted to 0.03 s⁻¹ in assay [2], 0.005 s⁻¹ in assay [3] and 0.0058 s⁻¹ in assay [5]. The on-rate constant (kon) (in general, the second-order rate constant of association) in assay [2] worked out at 110000 M⁻¹ s⁻¹; in assay [3], 97000 M⁻¹ s⁻¹; in assay [5] it was 270000 M⁻¹ s⁻¹.

B2: anti-CD137 IgG1 with Fc variant G1m1 (antibody)
heavy: EVQLVQSGAEVKKPGESLRISCKGSGYSFSTYWISWVRQMPGKGLEWMGKIYPGDSYTNYSPSFQGQVTISADKSISTAYLQWSSLKASDTAMYYCARGYGIFDYWGQGTLVTVSSASTKGPSVFPLAPSSKSTSGGTAALGCLVKDYFPEPVTVSWNSGALTSGVHTFPAVLQSSGLYSLSSVVTVPSSSLGTQTYICNVNHKPSNTKVDKKVEPKSCDKTHTCPPCPAPELLSVFLFPPKPKDTLMISRTPEVTCVVVDVSHEDPEVKFNWYVDGVEVHNAKTKPREEQYNSTYRVVSVLTVLHQDWLNGKEYKCKVSNKALPAPIEKTISKAKGQPREPQVYTLPPSREEMTKNQVSLTCLVKGFYPSDIAVEWESNGQPENNYKTTPPVLDSDGSFFLYSKLTVDKSRWQQGNVFSCSVMHEALHNHYTQKSLSLSPGK
light: SYELTQPPSVSVSPGQTASITCSGDNIGDQYAHWYQQKPGQSPVLVIYQDKNRPSGIPERFSGSNSGNTATLTISGTQAMDEADYYCATYTGFGSLAVFGGGTKLTVLGQPKAAPSVTLFPPSSEELQANKATLVCLISDFYPGAVTVAWKADSSPVKAGVETTTPSKQSNNKYAASSYLSLTPEQWKSHRSYSCQVTHEGSTVEKTVAPTECS
notes: copies: 2 + 2
For the molecule B2, the binding result in [9] is on record as “no binding (tested: 300 nM)”; in [11], “no binding (tested: 300 nM)”; in assay [14], “no binding (tested: 300 nM)”; in assay [8], “no binding (tested: 10 ug/ml)”. The dissociation constant (Kd) – broadly, a measure of binding affinity in units of concentration – in [10] turned out to be 0.44 µM; in [12] it was 300 nM; in assay [13], 11 nM; in assay [15] it was 200 nM. The dissociation rate constant (koff) in [10] is 0.11 s⁻¹; in assay [12], 0.1 s⁻¹; in assay [13], 0.0078 s⁻¹; in assay [15] it was 0.13 s⁻¹. Further, the on-rate constant (kon) was found to be 250000 M⁻¹ s⁻¹ in assay [10], 350000 M⁻¹ s⁻¹ in assay [12], 700000 M⁻¹ s⁻¹ in [13] and 650000 M⁻¹ s⁻¹ in assay [15].

B3: anti-CD137 IgG2 with Fc variant G2m10 (antibody)
heavy: EVQLVQSGAEVKKPGESLRISCKGSGYSFSTYWISWVRQMPGKGLEWMGKIYPGDSYTNYSPSFQGQVTISADKSISTAYLQWSSLKASDTAMYYCARGYGIFDYWGQGTLVTVSSASTKGPSVFPLAPCSRSTSESTAALGCLVKDYFPEPVTVSWNSGALTSGVHTFPAVLQSSGLYSLSSVVTVPSSNFGTQTYTCNVDHKPSNTKVDKTVERKCCVECPPCPAPEVSSVFLFPPKPKDTLMISRTPEVTCVVVDVSHEDPEVQFNWYVDGVEVHNAKTKPREEQFNSTFRVVSVLTVVHQDWLNGKEYKCKVSNKGFPAPIEKTISKTKGQPREPQVYTLPPSREEMTKNQVSLTCLVKGFYPSDIAVEWESNGQPENNYKTTPPMLDSDGSFFLYSKLTVDKSRWQQGNVFSCSVMHEALHNHYTQKSLSLSPGK
light: SYELTQPPSVSVSPGQTASITCSGDNIGDQYAHWYQQKPGQSPVLVIYQDKNRPSGIPERFSGSNSGNTATLTISGTQAMDEADYYCATYTGFGSLAVFGGGTKLTVLGQPKAAPSVTLFPPSSEELQANKATLVCLISDFYPGAVTVAWKADSSPVKAGVETTTPSKQSNNKYAASSYLSLTPEQWKSHRSYSCQVTHEGSTVEKTVAPTECS
notes: copies: 2 + 2
On to B3, for which the binding result in [16] is reported as “no binding (tested: 10 ug/ml)”; in [9], “no binding (tested: 300 nM)”; in assay [11] it was “no binding (tested: 300 nM)”; in assay [12], “no binding (tested: 300 nM)”; in [14] it was “no binding (tested: 300 nM)”; in [15], “no binding (tested: 300 nM)”. Besides, the binding result in [8] is on record as “no binding (tested: 10 ug/ml)”. The figures for the equilibrium dissociation constant (Kd) in [10] and in [13] were 17 µM and 21 nM, respectively. The off-rate (koff) in assay [10] worked out at 0.35 s⁻¹; in assay [13] it was 0.0088 s⁻¹. Moreover, the on-rate (kon) was found to be 21000 M⁻¹ s⁻¹ in assay [10] and 420000 M⁻¹ s⁻¹ in assay [13].
